In patent publication US20210047427A1 (Takeda / Millennium, published 2021):

Target: T1, cynomolgus CD38 (cynomolgus monkey, UniProt Q5VAN0 1-301)
T1 construct: In the assays it is native CD38 on cynomolgus monkey blood lymphocytes; also called cyno CD38; monkey CD38
Assay: Flow cytometry of cynomolgus monkey whole blood stained with labelled AB79. MFI converted to MOEF with Rainbow Beads. NK (CD3-, CD159a+), B (CD3-, CD20+) and T (CD3+) cells; 3 individuals, mean with SD.
Procedure: The flow cytometric measurements were standardized and the signals are reported in molecules of equivalent soluble fluorescence (MOEF). […] Direct comparison of CD38 expression levels on monkey NK cells (CD3−, CD159a+), B cells (CD3−, CD20+) and T cells (CD3+) and human NK cells (CD3−, CD16/CD56+), B cells (CD3−, CD19+) and T cells (CD3+) were evaluated by flow cytometry.
An aliquot of blood (100 μL) was mixed with appropriate volume of antibody (FIG. 1) and incubated for 15-20 minutes at RT in the dark. After incubation, 1 mL of BD FACS lyse (1×; BD Biosciences; San Jose, Calif.) was added to lyse red blood cells and the cells incubated for 10 minutes at RT in the dark, then centrifuged, decanted and resuspended in 1 mL of staining buffer with bovine serum albumin (BD Biosciences).

T1 sequence (Q5VAN0 whole entry): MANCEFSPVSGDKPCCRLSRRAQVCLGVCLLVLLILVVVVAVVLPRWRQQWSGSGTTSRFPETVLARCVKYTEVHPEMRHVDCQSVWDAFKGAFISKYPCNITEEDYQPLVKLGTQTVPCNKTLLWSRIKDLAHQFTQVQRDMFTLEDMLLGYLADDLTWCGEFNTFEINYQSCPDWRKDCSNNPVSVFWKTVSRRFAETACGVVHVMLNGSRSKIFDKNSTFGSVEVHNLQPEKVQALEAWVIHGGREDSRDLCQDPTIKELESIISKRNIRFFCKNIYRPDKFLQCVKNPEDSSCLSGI

B1: AB79 (antibody, human IgG1, lambda, V domains shown)
VH: EVQLLESGGGLVQPGGSLRLSCAASGFTFDDYGMSWVRQAPGKGLEWVSDISWNGGKTHYVDSVKGQFTISRDNSKNTLYLQMNSLRAEDTAVYYCARGSLFHDSSGFYFGHWGQGTLVTVSS
VL: QSVLTQPPSASGTPGQRVTISCSGSSSNIGDNYVSWYQQLPGTAPKLLIYRDSQRPSGVPDRFSGSKSGTSASLAISGLRSEDEADYYCQSYDSSLSGSVFGGGTKLTVLG
B1: binds.
